Results: paper PMC6016464, “Folding and binding pathways of BH3-only proteins are encoded within their intrinsically disordered sequence, not templated by partner proteins” (The Journal of Biological Chemistry, 2018)
Where no end group is shown, it is not given here. The star is where a group is joined. TAMRA = 5-carboxytetramethylrhodamine, CN(C)c1ccc2c(-c3ccc(C(=O)*)cc3C(=O)[O-])c3ccc(=[N+](C)C)cc-3oc2c1

T1: A1 protein (mouse, residues 1-152, P104K C113S, used as wild type) (mouse)
T1 sequence (Q07440 1-152 with P104K C113S, looked up): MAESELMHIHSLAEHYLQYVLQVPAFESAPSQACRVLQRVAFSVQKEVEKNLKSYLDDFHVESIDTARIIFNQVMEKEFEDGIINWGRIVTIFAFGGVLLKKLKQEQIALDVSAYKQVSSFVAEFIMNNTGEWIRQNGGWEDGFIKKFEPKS

B1: PUMA R154A peptide (on the M144A wild type), TAMRA-labelled (peptide)
chain: {TAMRA}-RVEEEEWAREIGAQLRRAADDLNAQYEARRQEEQH
B2: PUMA R143G peptide (on the M144A wild type), TAMRA-labelled (peptide)
chain: {TAMRA}-RVEEEEWAREIGAQLRGAADDLNAQYERRRQEEQH
B3: PUMA R154G peptide (on the M144A wild type), TAMRA-labelled (peptide)
chain: {TAMRA}-RVEEEEWAREIGAQLRRAADDLNAQYEGRRQEEQH
B4: PUMA E132A peptide (on the M144A wild type), TAMRA-labelled (peptide)
chain: {TAMRA}-RVEEEAWAREIGAQLRRAADDLNAQYERRRQEEQH
B5: PUMA A139G peptide (on the M144A wild type), TAMRA-labelled (peptide)
chain: {TAMRA}-RVEEEEWAREIGGQLRRAADDLNAQYERRRQEEQH
B6: PUMA peptide (mouse, residues 127-161, M144A, used as wild type), TAMRA-labelled (peptide)
chain: {TAMRA}-RVEEEEWAREIGAQLRRAADDLNAQYERRRQEEQH
B7: PUMA I137A peptide (on the M144A wild type), TAMRA-labelled (peptide)
chain: {TAMRA}-RVEEEEWAREAGAQLRRAADDLNAQYERRRQEEQH
B8: PUMA E132G peptide (on the M144A wild type), TAMRA-labelled (peptide)
chain: {TAMRA}-RVEEEGWAREIGAQLRRAADDLNAQYERRRQEEQH
B9: PUMA D147G peptide (on the M144A wild type), TAMRA-labelled (peptide)
chain: {TAMRA}-RVEEEEWAREIGAQLRRAADGLNAQYERRRQEEQH
B10: PUMA E136A peptide (on the M144A wild type), TAMRA-labelled (peptide)
chain: {TAMRA}-RVEEEEWARAIGAQLRRAADDLNAQYERRRQEEQH
B11: PUMA R143A peptide (on the M144A wild type), TAMRA-labelled (peptide)
chain: {TAMRA}-RVEEEEWAREIGAQLRAAADDLNAQYERRRQEEQH
B12: PUMA D147A peptide (on the M144A wild type), TAMRA-labelled (peptide)
chain: {TAMRA}-RVEEEEWAREIGAQLRRAADALNAQYERRRQEEQH
B13: PUMA Y152A peptide (on the M144A wild type), TAMRA-labelled (peptide)
chain: {TAMRA}-RVEEEEWAREIGAQLRRAADDLNAQAERRRQEEQH
B14: PUMA E136G peptide (on the M144A wild type), TAMRA-labelled (peptide)
chain: {TAMRA}-RVEEEEWARGIGAQLRRAADDLNAQYERRRQEEQH

molecular target: T1, A1 protein (mouse, residues 1-152, P104K C113S, used as wild type) (mouse); assay: fluorescence dissociation kinetics with competitor; dissociation; preformed complex of TAMRA-labelled peptide and partner protein mixed with excess unlabeled PUMA peptide as competitor; stopped-flow or Cary Eclipse spectrophotometer; 25 °C; 50 mM sodium phosphate, 0.05% (v/v) Tween 20, pH …

koff	Binder
0.00054 s⁻¹	B1
0.0052 s⁻¹	B2
0.00044 s⁻¹	B3
0.00077 s⁻¹	B4
0.00108 s⁻¹	B5
0.0005 s⁻¹	B6
0.006 s⁻¹	B7
0.00086 s⁻¹	B8
0.00195 s⁻¹	B9
0.00048 s⁻¹	B10
0.00088 s⁻¹	B11
0.00048 s⁻¹	B12
0.00251 s⁻¹	B13
0.00238 s⁻¹	B14

molecular target: T1, A1 protein (mouse, residues 1-152, P104K C113S, used as wild type) (mouse); assay: stopped-flow fluorescence kinetics; association; TAMRA-labelled peptide with folded partner at least 10-fold higher (pseudo-first-order); kon from the gradient of kobs versus partner concentration; 25 °C; 50 mM sodium phosphate, 0.05% (v/v) Tween 20, pH 7.0

kon	Binder
4.86e+06 M⁻¹ s⁻¹	B1
3.03e+06 M⁻¹ s⁻¹	B2
4.79e+06 M⁻¹ s⁻¹	B3
8.8e+06 M⁻¹ s⁻¹	B4
3.26e+06 M⁻¹ s⁻¹	B5
5.9e+06 M⁻¹ s⁻¹	B6
1.64e+06 M⁻¹ s⁻¹	B7
8.4e+06 M⁻¹ s⁻¹	B8
6.76e+06 M⁻¹ s⁻¹	B9
1.04e+07 M⁻¹ s⁻¹	B10
3.67e+06 M⁻¹ s⁻¹	B11
9.4e+06 M⁻¹ s⁻¹	B12
5.1e+06 M⁻¹ s⁻¹	B13
8.2e+06 M⁻¹ s⁻¹	B14

molecular target: T1, A1 protein (mouse, residues 1-152, P104K C113S, used as wild type) (mouse); assay: stopped-flow fluorescence kinetics + other: fluorescence dissociation kinetics with competitor; Kd calculated as the ratio koff/kon of the kinetic rate constants; 25 °C; 50 mM sodium phosphate, 0.05% (v/v) Tween 20, pH 7.0

Kd	Binder
0.111 nM	B1
1.72 nM	B2
0.092 nM	B3
0.088 nM	B4
0.33 nM	B5
0.085 nM	B6
3.7 nM	B7
0.102 nM	B8
0.288 nM	B9
0.046 nM	B10
0.24 nM	B11
0.051 nM	B12
0.49 nM	B13
0.29 nM	B14
